Where two headings read alike, the source gives them in different places.
Assays:
[1] = target: HLA-A2.1 on TAP-deficient T2 cells (human); details: remark: other sources report otherwise
[2] = target: HLA-A2.1 on TAP-deficient T2 cells (human); test: T2 cell HLA-A2.1 stabilisation assay, flow cytometry with BB7.2

Binder	FI0.5 [1] [µM]	FI0.5 [2] [µM]
DLMGYIPLV (modifications not checked) [wild-type C7A2 peptide (C7A2-WT)]	10	–
DLMGYIPVV (modifications not checked) [C7A2-8V peptide]	–	15
